Earlier results in article PMC4884208.

Columns and labels:
Assay in all cases: UV-vis
Tyr103 = Tyr103 (UniProt position 122, KVGINYWLAHK); settings: 25.0 C, 0.5 M Gdn-HCl
Tyr50 = Tyr50 (UniProt position 69, NDSTEYGLFQI); settings: 25.0 C, 0.5 M Gdn-HCl
Tyr18 = Tyr18 (UniProt position 37, KDLKGYGGVSL); settings: 25.0 C, 0.5 M Gdn-HCl
Tyr36 = Tyr36 (UniProt position 55, FHTSGYDTQAI); settings: 25.0 C, 0.5 M Gdn-HCl
Tyr22 = test system: Tyr22
Tyr25 = test system: Tyr25
Tyr117 = test system: Tyr117
Tyr113 = test system: Tyr113
Tyr75 = test system: Tyr75
Tyr28 = test system: Tyr28
Tyr73 = test system: Tyr73
Tyr52 = test system: Tyr52

Substance	pKa (Tyr103; alkaline-denatured (D) state)	pKa (Tyr103; native (N) state)	pKa (Tyr50; alkaline-denatured (D) state)	pKa (Tyr50; native (N) state)	pKa (Tyr18; alkaline-denatured (D) state)	pKa (Tyr18; native (N) state)	pKa (Tyr36; alkaline-denatured (D) state)	pKa (Tyr36; native (N) state)	pKa (Tyr22)	pKa (Tyr25)	pKa (Tyr117)	pKa (Tyr113)	pKa (Tyr75)	pKa (Tyr28)	pKa (Tyr73)	pKa (Tyr52)
alpha-lactalbumin (Bos taurus)	10.3	10.5	10.3	12.7	10.3	11.8	10.3	11.8								
Vipoxin neurotoxic phospholipase A2 (basic PLA2 subunit of vipoxin) (Vipera ammodytes meridionalis (inferred; organism not stated in the article))									10.45	13.23	10.45	12.17	10.45	12.17	13.23	12.17
